From US7485712 come the findings set out here.

Test [1] has as its target taxol-stabilised microtubules (porcine brain tubulin) (porcine) (UniProt P02550). In words: binding to taxol stabilized microtubules (30 µM tubulin dimers) after p110MARK phosphorylation.
The target in test [2] is microtubules assembled from porcine brain PC-tubulin (not taxol-stabilised) (porcine) (UniProt P02550). The test can be described thus: cell-based or functional assay.
Test [3] addresses taxol-stabilised microtubules (porcine brain tubulin) (porcine) (UniProt P02550). In words: binding to taxol stabilized microtubules (30 µM tubulin dimers), binding curve.

Chain of MAP4, phosphorylated with NPK-110 (P27546 630-1125): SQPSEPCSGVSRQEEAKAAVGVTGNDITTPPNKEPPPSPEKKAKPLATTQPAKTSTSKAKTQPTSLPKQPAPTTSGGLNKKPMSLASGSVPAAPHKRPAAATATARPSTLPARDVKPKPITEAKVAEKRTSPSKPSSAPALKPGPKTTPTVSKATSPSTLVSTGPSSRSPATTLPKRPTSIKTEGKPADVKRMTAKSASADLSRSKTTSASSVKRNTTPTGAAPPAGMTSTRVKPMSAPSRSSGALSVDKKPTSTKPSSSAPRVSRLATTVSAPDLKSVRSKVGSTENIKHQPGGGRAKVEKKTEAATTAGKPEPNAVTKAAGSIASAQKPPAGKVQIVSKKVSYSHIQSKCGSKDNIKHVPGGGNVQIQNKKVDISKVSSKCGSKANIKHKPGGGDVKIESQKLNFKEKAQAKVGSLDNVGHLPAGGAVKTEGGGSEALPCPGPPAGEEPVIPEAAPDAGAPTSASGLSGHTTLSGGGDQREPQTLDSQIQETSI

A word on the Kd: it is the concentration at which binding is half-saturated. A higher Kd goes with weaker binding. In test [1], MAP2cA350, phosphorylated with p110MARK returned a Kd of 7 µM.
On to MAP4, phosphorylated with NPK-110, for which the mean length of microtubules, against the control without ATP (fold of control) in test [2] was determined as 0.5.
The same measure, in the same setting: in the case of MAP2, phosphorylated with NPK-110 it was 0.5.
MAP2cA319, phosphorylated with p110MARK had a Kd in test [1] of 7 µM.
As to “recombinant wild type MAP2c, phosphorylated with p110MARK (NPK-110)”, the mean length of microtubules, against the control without ATP (fold of control) in test [2] is 0.5.
Consider “recombinant wild type MAP2c, non-phosphorylated”, for which, in test [3], the Kd is 0.25 µM, the saturation amounted to 17 µM and the stoichiometry (MAP2c molecules per tubulin dimer) was 0.5.
